The results in this text go back to patent US20120213699A1 (BOARD OF TRUSTEES OF THE UNIVERSITY OF ILLINOIS, published 2012).

The target in the test is T1, BSA (UniProt P02769 25-607).
T1 construct: Negative control coating; also called bovine serum albumin
In words: phage ELISA on coated plates, anti-M13 peroxidase. On the technique in general: An ELISA detects its analyte on a solid surface through an enzyme-linked reagent.

T1 sequence (P02769 25-607 limits assumed): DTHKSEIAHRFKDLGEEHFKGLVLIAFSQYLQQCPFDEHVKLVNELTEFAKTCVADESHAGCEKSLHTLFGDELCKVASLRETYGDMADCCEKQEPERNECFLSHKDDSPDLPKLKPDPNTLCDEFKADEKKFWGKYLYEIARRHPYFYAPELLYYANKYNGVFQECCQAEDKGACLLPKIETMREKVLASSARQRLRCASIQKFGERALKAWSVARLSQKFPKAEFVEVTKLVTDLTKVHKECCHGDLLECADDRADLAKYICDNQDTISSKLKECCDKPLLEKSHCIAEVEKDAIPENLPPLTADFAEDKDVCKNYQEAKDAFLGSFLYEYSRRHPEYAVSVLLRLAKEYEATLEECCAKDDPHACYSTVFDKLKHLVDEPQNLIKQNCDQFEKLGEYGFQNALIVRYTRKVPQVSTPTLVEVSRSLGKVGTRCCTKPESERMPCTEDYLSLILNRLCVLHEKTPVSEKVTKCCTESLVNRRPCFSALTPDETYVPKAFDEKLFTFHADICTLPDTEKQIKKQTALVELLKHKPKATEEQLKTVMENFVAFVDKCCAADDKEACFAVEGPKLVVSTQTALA
Procedure: Phage ELISA on ACE-coated plates. Purified phages after 1st round of selection were taken for analysis in ELISA. […] For that, 96 well plate was coated with human and rat ACEs as a positive controls, and bovine ACE and BSA (5 ug/ml) as a negative controls. Plates were blocked for 30 min with 2% non-fat dry milk, and phages diluted in the milk were applied to the plates. After 30 min incubation with shaking and another 1.5 hours without shaking, unbound phages were washed with PBS/0.05% Tween 20 and anti-M13 antibodies conjugated with peroxidase (Pharmacia Biotech) diluted 1/2000 dilution in the 2% non-fat dry milk were added. After intensive washing with PBS/0.05% Tween 20 plates were developed with 1-step 3,3′5,5′-Tetramethyl-benzidine (TBM) substrate for ELISA and read at OD620 or at OD450 after reaction was stopped with 3N HCl.
For the assay 96 well plates were coated with human and rat ACEs as positive controls and with bovine ACE and BSA (5 μg/ml) as negative controls. Plates were blocked for 30 min with 2% non-fat dry milk and the phages diluted in milk were applied to the plates. […] After Intensive washing with PBS/Tween 20 the plates were developed with 1-step TBM substrate for ELISA and read at 620 nm or 450 nm after the reaction was stopped with 3N HCl.

B1: scFv 9B9 expressed on the phage surface (phages with the λ fragment) (scFv)
scFv: QVQLKESGPGLVAPSQSLSITCTVSGFSLTTYGVHWVRQPPGKGLEWLGVIWGGGNTNYNSALMSRLNITKDNSKRQVFLKMNSLQADDTGMYYCARGWDSWGQGTTLTVSSAKTTPPKLEEGEFSEARVQAVVTQESALTTSPGETVTLTCRSSTGAVTTNNYANWVQENPDHLFTGLIDGTNTRSPGVPARFSGSLIGDKAALTITGAQTEDEAIYFCALWYSNHWVFGGGTKLTVLGQ
notes: also called scFv 9B9 phages; 9B9 scFv phages; not shown: phage coat protein fusion partner from phagemid pSEX 81
For B1, the binding result is “no binding (tested: 5 µg/ml (coating))”.
